In patent US20230357362A1 one finds Probe identification probability data, which are given here for two substances.

Test [1] has as its target 40S ribosomal protein S15a OS = Homo sapiens (Homo sapiens) (UniProt P62244). Kind of test: co-IP with M53 from SW480 lysate, LC-MS.
Test [2] has as its target 40S ribosomal protein S3 OS = Homo sapiens GN = RPS3 (Homo sapiens) (UniProt P23396). Kind of test: co-IP with M53 from SW480 lysate, LC-MS.
Test [3] has as its target ADP/ATP translocase 3 OS = Homo sapiens GN = SLC25A6 (Homo sapiens) (UniProt P12236). The experiment in a line: co-IP with M53 from SW480 lysate, LC-MS.
The target of test [4] is ATP synthase subunit beta, mitochondrial OS = Homo (name cut off as printed) (Homo sapiens) (UniProt P06576). The experiment in a line: co-IP with M53 from SW480 lysate, LC-MS.
Chain of ATP synthase subunit beta, mitochondrial OS = Homo (name cut off as printed) (Homo sapiens) (P06576 48-529 limits assumed): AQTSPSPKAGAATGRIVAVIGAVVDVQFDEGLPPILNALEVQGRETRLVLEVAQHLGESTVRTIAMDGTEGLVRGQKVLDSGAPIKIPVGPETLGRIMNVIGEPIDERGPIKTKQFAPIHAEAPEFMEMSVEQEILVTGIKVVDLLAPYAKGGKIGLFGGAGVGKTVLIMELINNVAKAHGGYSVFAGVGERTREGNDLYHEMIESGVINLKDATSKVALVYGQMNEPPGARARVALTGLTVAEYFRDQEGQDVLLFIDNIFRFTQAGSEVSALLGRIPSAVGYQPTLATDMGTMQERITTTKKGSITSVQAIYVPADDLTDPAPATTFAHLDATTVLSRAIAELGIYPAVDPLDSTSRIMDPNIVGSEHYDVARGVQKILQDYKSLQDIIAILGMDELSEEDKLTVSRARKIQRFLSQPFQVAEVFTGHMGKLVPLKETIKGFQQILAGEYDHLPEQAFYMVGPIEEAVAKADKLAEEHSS
For test [5], the target named is Cytoplasmic dynein 1 heavy chain 1 OS = Homo sapiens (Homo sapiens) (UniProt Q14204). Kind of test: co-IP with M53 from SW480 lysate, LC-MS.
Test [6] deals with DNA-dependent protein kinase catalytic subunit (UniProt P78527). The experiment in a line: co-IP with M53 from SW480 lysate, LC-MS.
In test [7] the target is Desmoplakin OS = Homo sapiens GN = DSP PE = 1 SV = 3 (Homo sapiens) (UniProt P15924). Kind of test: co-IP with M53 from SW480 lysate, LC-MS.
In test [8] the target is Heat shock cognate 71 kDa protein OS = Homo sapiens (Homo sapiens) (UniProt P11142). The experiment in a line: co-IP with M53 from SW480 lysate, LC-MS.
In test [9] the target is Heat shock protein HSP 90-alpha OS = Homo sapiens (Homo sapiens) (UniProt P07900). Kind of test: co-IP with M53 from SW480 lysate, LC-MS.
For test [10], the target named is Heat shock protein beta-1 OS = Homo sapiens (Homo sapiens) (UniProt P04792). Kind of test: co-IP with M53 from SW480 lysate, LC-MS.
Chain of Heat shock protein beta-1 OS = Homo sapiens (Homo sapiens) (P04792 whole entry): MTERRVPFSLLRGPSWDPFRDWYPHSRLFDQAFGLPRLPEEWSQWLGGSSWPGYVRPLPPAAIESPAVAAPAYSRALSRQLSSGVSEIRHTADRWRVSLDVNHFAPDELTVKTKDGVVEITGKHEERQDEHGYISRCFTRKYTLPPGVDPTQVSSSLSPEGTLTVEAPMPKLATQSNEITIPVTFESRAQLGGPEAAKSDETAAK

Test [11] addresses Histone H4 OS = Homo sapiens GN = HIST1H4A PE = 1 (Homo sapiens) (UniProt P62805). The experiment in a line: co-IP with M53 from SW480 lysate, LC-MS.
The target of test [12] is Isoform 2 of 40S ribosomal protein S20 OS = Homo (name cut off as printed) (Homo sapiens) (UniProt P60866). Kind of test: co-IP with M53 from SW480 lysate, LC-MS.
In test [13] the target is Isoform 2 of ATP synthase subunit alpha, mitochondrial (UniProt P25705). Kind of test: co-IP with M53 from SW480 lysate, LC-MS.
Chain of Isoform 2 of ATP synthase subunit alpha, mitochondrial (P25705 51-553 limits assumed): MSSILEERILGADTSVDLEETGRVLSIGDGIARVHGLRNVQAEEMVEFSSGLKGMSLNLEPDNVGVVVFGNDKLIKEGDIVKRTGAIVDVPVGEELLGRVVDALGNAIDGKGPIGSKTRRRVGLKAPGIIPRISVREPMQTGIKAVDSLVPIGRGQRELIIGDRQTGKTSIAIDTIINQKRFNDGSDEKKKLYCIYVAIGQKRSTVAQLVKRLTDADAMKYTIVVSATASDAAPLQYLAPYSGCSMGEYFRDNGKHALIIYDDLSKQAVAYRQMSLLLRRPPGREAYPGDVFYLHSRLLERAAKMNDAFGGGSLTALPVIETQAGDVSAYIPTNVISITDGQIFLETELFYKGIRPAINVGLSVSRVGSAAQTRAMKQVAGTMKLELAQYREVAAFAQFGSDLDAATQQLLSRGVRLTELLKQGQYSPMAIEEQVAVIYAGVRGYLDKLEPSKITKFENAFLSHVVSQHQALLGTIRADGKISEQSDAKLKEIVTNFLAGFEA
Test [14] has as its target Isoform 2 of Annexin A2 OS = Homo sapiens GN = ANXA2 (Homo sapiens) (UniProt P07355). Kind of test: co-IP with M53 from SW480 lysate, LC-MS.
In test [15] the target is Isoform 2 of Glyceraldehyde-3-phosphate (name cut off as printed) (UniProt P04406). The experiment in a line: co-IP with M53 from SW480 lysate, LC-MS.
Chain of Isoform 2 of Glyceraldehyde-3-phosphate (name cut off as printed) (P04406 43-335 limits assumed): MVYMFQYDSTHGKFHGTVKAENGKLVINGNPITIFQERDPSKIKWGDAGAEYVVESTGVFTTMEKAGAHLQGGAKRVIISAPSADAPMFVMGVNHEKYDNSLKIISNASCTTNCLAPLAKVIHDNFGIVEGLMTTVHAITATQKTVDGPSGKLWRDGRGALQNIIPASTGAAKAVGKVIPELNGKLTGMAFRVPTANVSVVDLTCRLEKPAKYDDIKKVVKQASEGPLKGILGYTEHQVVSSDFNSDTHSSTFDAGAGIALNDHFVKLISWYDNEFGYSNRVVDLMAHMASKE
The target of test [16] is Isoform 2 of Plectin OS = Homo sapiens GN = PLEC (Homo sapiens) (UniProt Q15149). Kind of test: co-IP with M53 from SW480 lysate, LC-MS.
For test [17], the target named is Junction plakoglobin OS = Homo sapiens GN = JUP PE = 1 (Homo sapiens) (UniProt P14923). The experiment in a line: co-IP with M53 from SW480 lysate, LC-MS.
Chain of Junction plakoglobin OS = Homo sapiens GN = JUP PE = 1 (Homo sapiens) (P14923 whole entry): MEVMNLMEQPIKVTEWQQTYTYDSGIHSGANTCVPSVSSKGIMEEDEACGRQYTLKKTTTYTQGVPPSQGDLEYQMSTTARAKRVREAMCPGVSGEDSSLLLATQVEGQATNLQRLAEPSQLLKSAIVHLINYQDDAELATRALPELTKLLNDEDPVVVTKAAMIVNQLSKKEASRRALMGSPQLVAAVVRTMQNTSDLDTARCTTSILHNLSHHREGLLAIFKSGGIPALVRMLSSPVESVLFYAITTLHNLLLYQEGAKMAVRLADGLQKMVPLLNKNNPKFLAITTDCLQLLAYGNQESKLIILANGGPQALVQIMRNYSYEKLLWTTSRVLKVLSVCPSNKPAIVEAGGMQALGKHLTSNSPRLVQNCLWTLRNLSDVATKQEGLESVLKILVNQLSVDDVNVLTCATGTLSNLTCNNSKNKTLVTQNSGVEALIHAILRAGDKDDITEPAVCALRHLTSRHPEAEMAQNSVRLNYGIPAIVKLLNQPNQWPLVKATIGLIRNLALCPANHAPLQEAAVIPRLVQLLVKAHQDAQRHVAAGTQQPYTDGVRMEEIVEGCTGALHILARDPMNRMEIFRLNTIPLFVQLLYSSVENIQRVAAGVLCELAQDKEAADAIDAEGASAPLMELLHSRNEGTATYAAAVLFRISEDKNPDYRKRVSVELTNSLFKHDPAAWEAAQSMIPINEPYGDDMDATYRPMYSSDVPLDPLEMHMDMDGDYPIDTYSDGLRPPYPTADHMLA

Test [18] deals with Myosin-9 OS = Homo sapiens GN = MYH9 PE = 1 SV = 4 (Homo sapiens) (UniProt P35579). The experiment in a line: co-IP with M53 from SW480 lysate, LC-MS.
Chain of Myosin-9 OS = Homo sapiens GN = MYH9 PE = 1 SV = 4 (Homo sapiens) (P35579 2-1960 limits assumed): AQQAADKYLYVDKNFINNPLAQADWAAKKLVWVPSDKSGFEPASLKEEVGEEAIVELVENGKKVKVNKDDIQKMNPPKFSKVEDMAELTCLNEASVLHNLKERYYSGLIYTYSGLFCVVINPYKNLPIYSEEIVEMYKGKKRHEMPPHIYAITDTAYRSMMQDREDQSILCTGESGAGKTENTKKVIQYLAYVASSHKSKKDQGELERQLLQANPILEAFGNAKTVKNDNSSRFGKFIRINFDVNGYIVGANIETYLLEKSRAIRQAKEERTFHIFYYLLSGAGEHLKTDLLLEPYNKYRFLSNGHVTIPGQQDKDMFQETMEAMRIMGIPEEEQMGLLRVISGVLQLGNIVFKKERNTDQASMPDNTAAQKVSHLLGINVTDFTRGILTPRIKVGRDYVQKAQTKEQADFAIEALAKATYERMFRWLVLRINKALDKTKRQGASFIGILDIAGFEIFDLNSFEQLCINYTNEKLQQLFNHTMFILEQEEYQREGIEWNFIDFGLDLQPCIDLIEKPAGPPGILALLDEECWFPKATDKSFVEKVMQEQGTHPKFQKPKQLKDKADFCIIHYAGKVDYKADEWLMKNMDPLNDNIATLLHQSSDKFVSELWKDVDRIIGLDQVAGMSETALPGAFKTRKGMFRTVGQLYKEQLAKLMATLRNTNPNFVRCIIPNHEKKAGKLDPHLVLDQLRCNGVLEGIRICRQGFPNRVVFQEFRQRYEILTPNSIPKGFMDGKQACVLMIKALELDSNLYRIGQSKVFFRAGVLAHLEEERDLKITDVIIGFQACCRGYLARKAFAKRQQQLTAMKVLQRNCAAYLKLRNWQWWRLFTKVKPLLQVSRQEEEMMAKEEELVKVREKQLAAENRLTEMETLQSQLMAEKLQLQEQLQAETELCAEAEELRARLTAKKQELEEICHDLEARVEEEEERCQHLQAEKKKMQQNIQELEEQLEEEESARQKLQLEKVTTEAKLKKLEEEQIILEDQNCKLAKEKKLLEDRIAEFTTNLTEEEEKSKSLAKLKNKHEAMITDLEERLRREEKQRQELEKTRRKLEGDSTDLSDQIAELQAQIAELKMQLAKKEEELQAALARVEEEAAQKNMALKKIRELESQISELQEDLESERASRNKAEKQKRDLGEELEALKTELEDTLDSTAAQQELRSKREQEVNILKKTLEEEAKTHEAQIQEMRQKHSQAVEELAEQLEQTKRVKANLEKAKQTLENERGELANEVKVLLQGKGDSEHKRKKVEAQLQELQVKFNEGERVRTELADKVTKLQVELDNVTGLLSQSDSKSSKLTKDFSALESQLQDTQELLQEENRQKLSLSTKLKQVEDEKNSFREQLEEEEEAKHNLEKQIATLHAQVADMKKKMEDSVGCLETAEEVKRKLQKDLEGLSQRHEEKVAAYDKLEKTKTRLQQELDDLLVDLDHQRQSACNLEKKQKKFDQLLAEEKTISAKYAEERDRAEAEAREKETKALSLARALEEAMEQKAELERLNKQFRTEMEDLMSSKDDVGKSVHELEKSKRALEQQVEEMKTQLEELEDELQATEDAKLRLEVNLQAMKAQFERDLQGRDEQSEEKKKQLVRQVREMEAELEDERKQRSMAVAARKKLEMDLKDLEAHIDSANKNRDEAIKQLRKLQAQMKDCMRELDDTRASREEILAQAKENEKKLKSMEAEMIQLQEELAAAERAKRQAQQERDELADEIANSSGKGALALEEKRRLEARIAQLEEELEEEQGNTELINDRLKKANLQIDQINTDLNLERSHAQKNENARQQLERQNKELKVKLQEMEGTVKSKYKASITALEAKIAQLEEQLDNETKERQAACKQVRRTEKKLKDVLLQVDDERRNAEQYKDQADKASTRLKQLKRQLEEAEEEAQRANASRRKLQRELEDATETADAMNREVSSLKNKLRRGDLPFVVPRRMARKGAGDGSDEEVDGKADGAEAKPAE
Test [19] concerns the target Tubulin beta chain OS = Homo sapiens GN = TUBB PE = 1 (Homo sapiens) (UniProt P07437). The experiment in a line: co-IP with M53 from SW480 lysate, LC-MS.
The target of test [20] is Tubulin beta-4B chain OS = Homo sapiens GN = TUBB4B (Homo sapiens) (UniProt P68371). Kind of test: co-IP with M53 from SW480 lysate, LC-MS.
The target of test [21] is 40S ribosomal protein S15a OS = Homo sapiens (Homo sapiens) (UniProt P62244). Kind of test: IP with isotype IgG control from SW480 lysate, LC-MS (negative control).
The target of test [22] is 40S ribosomal protein S3 OS = Homo sapiens GN = RPS3 (Homo sapiens) (UniProt P23396). The test is described as above.
The target in test [23] is ADP/ATP translocase 3 OS = Homo sapiens GN = SLC25A6 (Homo sapiens) (UniProt P12236). The description is as above.
Chain of ADP/ATP translocase 3 OS = Homo sapiens GN = SLC25A6 (Homo sapiens) (P12236 2-298 limits assumed): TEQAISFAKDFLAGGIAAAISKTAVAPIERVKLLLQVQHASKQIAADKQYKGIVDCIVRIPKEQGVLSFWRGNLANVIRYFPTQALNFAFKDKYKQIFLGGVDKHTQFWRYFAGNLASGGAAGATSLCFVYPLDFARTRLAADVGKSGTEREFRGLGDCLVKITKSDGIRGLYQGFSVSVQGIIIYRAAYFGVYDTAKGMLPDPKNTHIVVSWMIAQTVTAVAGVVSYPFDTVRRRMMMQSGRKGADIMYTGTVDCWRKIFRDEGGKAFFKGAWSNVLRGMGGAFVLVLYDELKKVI
The target in test [24] is ATP synthase subunit beta, mitochondrial OS = Homo (name cut off as printed) (Homo sapiens) (UniProt P06576). Described as above.
The target in test [25] is Cytoplasmic dynein 1 heavy chain 1 OS = Homo sapiens (Homo sapiens) (UniProt Q14204). The description is as above.
The target of test [26] is DNA-dependent protein kinase catalytic subunit (UniProt P78527). The test is described as above.
The target of test [27] is Desmoplakin OS = Homo sapiens GN = DSP PE = 1 SV = 3 (Homo sapiens) (UniProt P15924). The test is described as above.
For test [28], the target named is Heat shock cognate 71 kDa protein OS = Homo sapiens (Homo sapiens) (UniProt P11142). Described as above.
For test [29], the target named is Heat shock protein HSP 90-alpha OS = Homo sapiens (Homo sapiens) (UniProt P07900). The description is as above.
Test [30] concerns the target Heat shock protein beta-1 OS = Homo sapiens (Homo sapiens) (UniProt P04792). The description is as above.
For test [31], the target named is Histone H4 OS = Homo sapiens GN = HIST1H4A PE = 1 (Homo sapiens) (UniProt P62805). The description is as above.
The target of test [32] is Isoform 2 of 40S ribosomal protein S20 OS = Homo (name cut off as printed) (Homo sapiens) (UniProt P60866). Described as above.
For test [33], the target named is Isoform 2 of ATP synthase subunit alpha, mitochondrial (UniProt P25705). The description is as above.
Test [34] has as its target Isoform 2 of Annexin A2 OS = Homo sapiens GN = ANXA2 (Homo sapiens) (UniProt P07355). The test is described as above.
Test [35] concerns the target Isoform 2 of Glyceraldehyde-3-phosphate (name cut off as printed) (UniProt P04406). The test is described as above.
The target of test [36] is Isoform 2 of Plectin OS = Homo sapiens GN = PLEC (Homo sapiens) (UniProt Q15149). The test is described as above.
In test [37] the target is Junction plakoglobin OS = Homo sapiens GN = JUP PE = 1 (Homo sapiens) (UniProt P14923). Described as above.
The target of test [38] is Myosin-9 OS = Homo sapiens GN = MYH9 PE = 1 SV = 4 (Homo sapiens) (UniProt P35579). Described as above.
Test [39] concerns the target Tubulin beta chain OS = Homo sapiens GN = TUBB PE = 1 (Homo sapiens) (UniProt P07437). The description is as above.
In test [40] the target is Tubulin beta-4B chain OS = Homo sapiens GN = TUBB4B (Homo sapiens) (UniProt P68371). The test is described as above.
Test [41] concerns the target endogenous fibronectin of human CRC cells (Isoform 10 of Fibronectin OS = Homo sapiens GN = FN1) (Homo sapiens) (UniProt P02751). Described as above.

Chain of dysadherin (FXYD5) as expressed in human CRC cells (endogenous in SW480 cells; overexpressed in HCT116 cells) (Q96DB9 22-178): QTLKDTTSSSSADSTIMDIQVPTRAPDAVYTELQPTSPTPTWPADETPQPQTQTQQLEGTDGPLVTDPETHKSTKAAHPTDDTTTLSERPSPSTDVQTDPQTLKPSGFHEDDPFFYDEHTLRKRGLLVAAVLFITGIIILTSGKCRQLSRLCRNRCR
Chain of Isoform 2 of Annexin A2 OS = Homo sapiens GN = ANXA2 (Homo sapiens) (P07355 other isoform, or with tags, fused parts or gaps limits assumed): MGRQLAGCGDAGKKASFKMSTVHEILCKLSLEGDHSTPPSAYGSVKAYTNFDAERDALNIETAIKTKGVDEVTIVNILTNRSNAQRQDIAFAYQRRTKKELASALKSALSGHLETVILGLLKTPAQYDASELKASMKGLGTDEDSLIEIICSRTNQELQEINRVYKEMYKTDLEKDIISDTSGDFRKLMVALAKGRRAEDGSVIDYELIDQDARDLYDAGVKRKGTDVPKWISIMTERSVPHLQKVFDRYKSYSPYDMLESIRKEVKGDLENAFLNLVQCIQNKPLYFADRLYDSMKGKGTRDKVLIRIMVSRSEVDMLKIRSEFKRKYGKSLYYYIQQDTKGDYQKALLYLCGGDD

Regarding “dysadherin (FXYD5) as expressed in human CRC cells (endogenous in SW480 cells; overexpressed in HCT116 cells) (from UniProt Q96DB9 22-178)”, the Probe identification probability in test [1], in test [2], in test [3], in [4], in [5] and in test [6] was 100% throughout. Further, the Probe identification probability in [7], in [8], in [9], in test [10], in test [11] and in test [12] was 100% each time. Further, the Probe identification probability in test [13], in test [14], in test [15], in test [16], in test [17] and in test [18] was 100% each time. Moreover, the Probe identification probability in test [19] and in [20] was 100% each time.

With isotype IgG control antibody, the Probe identification probability in test [21] came out at 75%; in [22] it was 100%; in test [23] it was 100%; in [24], 100%; in test [25], 10%; in [26], 72%. The Probe identification probability in [27] turned out to be 91%; in [28], 100%; in [29], 100%; in test [30], 100%; in test [31], 100%; in test [32], 100%. Further, the Probe identification probability in [33] amounted to 100%; in test [34] it was 100%; in [35], 99%; in [36], 15%; in [37], 98%; in test [38], 13%. In addition, the Probe identification probability was 100% in test [39], 100% in [40] and 6% in test [41].
